Biological target: T1, Human CD3eg linker (human)
T1 construct: Single chain: epsilon and gamma subunits of human CD3 joined by a 29-mer linker, Flag-tag at the C-terminus; also called recombinant human CD3
T1 chain: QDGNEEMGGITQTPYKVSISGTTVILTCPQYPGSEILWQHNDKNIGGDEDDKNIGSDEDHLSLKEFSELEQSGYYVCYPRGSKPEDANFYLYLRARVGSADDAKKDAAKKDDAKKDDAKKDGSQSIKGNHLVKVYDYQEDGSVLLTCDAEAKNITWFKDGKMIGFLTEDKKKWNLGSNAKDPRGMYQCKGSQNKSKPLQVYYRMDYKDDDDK
Test: Biacore SPR, vs template H183/L072

| Binder | fold change of affinity [fold] |
| --- | --- |
| H183/L072 VH S30E (antibody, name in Kabat numbering, V domains shown) VH: QVQLVESGGGLVQPGRSLRLSCAASGFTFENAWMHWVRQAPGKGLEWVAQIKDKGNAYAAYYAPSVKGRFTISRDDSKNSIYLQMNSLKTEDTAVYYCHYVHYASASTVLPAFGVDAWGQGTTVTVSS VL: DIVMTQSPLSLPVTPGEPASISCQASQELVHMNRNTYLHWYQQKPGQAPRLLIYKVSNRFPGVPDRFSGSGSGTDFTLKISRVEAEDVGVYYCAQGTSVPFTFGQGTKLEIK | 0.6 |
| H183/L072 VH S30F (antibody, name in Kabat numbering, V domains shown) VH: QVQLVESGGGLVQPGRSLRLSCAASGFTFFNAWMHWVRQAPGKGLEWVAQIKDKGNAYAAYYAPSVKGRFTISRDDSKNSIYLQMNSLKTEDTAVYYCHYVHYASASTVLPAFGVDAWGQGTTVTVSS VL: DIVMTQSPLSLPVTPGEPASISCQASQELVHMNRNTYLHWYQQKPGQAPRLLIYKVSNRFPGVPDRFSGSGSGTDFTLKISRVEAEDVGVYYCAQGTSVPFTFGQGTKLEIK | 1 |
| H183/L072 VH S30G (antibody, name in Kabat numbering, V domains shown) VH: QVQLVESGGGLVQPGRSLRLSCAASGFTFGNAWMHWVRQAPGKGLEWVAQIKDKGNAYAAYYAPSVKGRFTISRDDSKNSIYLQMNSLKTEDTAVYYCHYVHYASASTVLPAFGVDAWGQGTTVTVSS VL: DIVMTQSPLSLPVTPGEPASISCQASQELVHMNRNTYLHWYQQKPGQAPRLLIYKVSNRFPGVPDRFSGSGSGTDFTLKISRVEAEDVGVYYCAQGTSVPFTFGQGTKLEIK | 1.1 |
| H183/L072 VH S30H (antibody, name in Kabat numbering, V domains shown) VH: QVQLVESGGGLVQPGRSLRLSCAASGFTFHNAWMHWVRQAPGKGLEWVAQIKDKGNAYAAYYAPSVKGRFTISRDDSKNSIYLQMNSLKTEDTAVYYCHYVHYASASTVLPAFGVDAWGQGTTVTVSS VL: DIVMTQSPLSLPVTPGEPASISCQASQELVHMNRNTYLHWYQQKPGQAPRLLIYKVSNRFPGVPDRFSGSGSGTDFTLKISRVEAEDVGVYYCAQGTSVPFTFGQGTKLEIK | 1 |
| H183/L072 VH S30I (antibody, name in Kabat numbering, V domains shown) VH: QVQLVESGGGLVQPGRSLRLSCAASGFTFINAWMHWVRQAPGKGLEWVAQIKDKGNAYAAYYAPSVKGRFTISRDDSKNSIYLQMNSLKTEDTAVYYCHYVHYASASTVLPAFGVDAWGQGTTVTVSS VL: DIVMTQSPLSLPVTPGEPASISCQASQELVHMNRNTYLHWYQQKPGQAPRLLIYKVSNRFPGVPDRFSGSGSGTDFTLKISRVEAEDVGVYYCAQGTSVPFTFGQGTKLEIK | 0.8 |
| H183/L072 VH S30K (antibody, name in Kabat numbering, V domains shown) VH: QVQLVESGGGLVQPGRSLRLSCAASGFTFKNAWMHWVRQAPGKGLEWVAQIKDKGNAYAAYYAPSVKGRFTISRDDSKNSIYLQMNSLKTEDTAVYYCHYVHYASASTVLPAFGVDAWGQGTTVTVSS VL: DIVMTQSPLSLPVTPGEPASISCQASQELVHMNRNTYLHWYQQKPGQAPRLLIYKVSNRFPGVPDRFSGSGSGTDFTLKISRVEAEDVGVYYCAQGTSVPFTFGQGTKLEIK | 0.9 |
| H183/L072 VH S30L (antibody, name in Kabat numbering, V domains shown) VH: QVQLVESGGGLVQPGRSLRLSCAASGFTFLNAWMHWVRQAPGKGLEWVAQIKDKGNAYAAYYAPSVKGRFTISRDDSKNSIYLQMNSLKTEDTAVYYCHYVHYASASTVLPAFGVDAWGQGTTVTVSS VL: DIVMTQSPLSLPVTPGEPASISCQASQELVHMNRNTYLHWYQQKPGQAPRLLIYKVSNRFPGVPDRFSGSGSGTDFTLKISRVEAEDVGVYYCAQGTSVPFTFGQGTKLEIK | 0.8 |
| H183/L072 VH S30M (antibody, name in Kabat numbering, V domains shown) VH: QVQLVESGGGLVQPGRSLRLSCAASGFTFMNAWMHWVRQAPGKGLEWVAQIKDKGNAYAAYYAPSVKGRFTISRDDSKNSIYLQMNSLKTEDTAVYYCHYVHYASASTVLPAFGVDAWGQGTTVTVSS VL: DIVMTQSPLSLPVTPGEPASISCQASQELVHMNRNTYLHWYQQKPGQAPRLLIYKVSNRFPGVPDRFSGSGSGTDFTLKISRVEAEDVGVYYCAQGTSVPFTFGQGTKLEIK | 0.7 |
| H183/L072 VH S30N (antibody, name in Kabat numbering, V domains shown) VH: QVQLVESGGGLVQPGRSLRLSCAASGFTFNNAWMHWVRQAPGKGLEWVAQIKDKGNAYAAYYAPSVKGRFTISRDDSKNSIYLQMNSLKTEDTAVYYCHYVHYASASTVLPAFGVDAWGQGTTVTVSS VL: DIVMTQSPLSLPVTPGEPASISCQASQELVHMNRNTYLHWYQQKPGQAPRLLIYKVSNRFPGVPDRFSGSGSGTDFTLKISRVEAEDVGVYYCAQGTSVPFTFGQGTKLEIK | 0.7 |

Further lines, results first:

| fold change of affinity [fold] | Binder |
| --- | --- |
| 0.3 | H183/L072 VH S30P (antibody, name in Kabat numbering, V domains shown) VH: QVQLVESGGGLVQPGRSLRLSCAASGFTFPNAWMHWVRQAPGKGLEWVAQIKDKGNAYAAYYAPSVKGRFTISRDDSKNSIYLQMNSLKTEDTAVYYCHYVHYASASTVLPAFGVDAWGQGTTVTVSS VL: DIVMTQSPLSLPVTPGEPASISCQASQELVHMNRNTYLHWYQQKPGQAPRLLIYKVSNRFPGVPDRFSGSGSGTDFTLKISRVEAEDVGVYYCAQGTSVPFTFGQGTKLEIK |
| 0.8 | H183/L072 VH S30Q (antibody, name in Kabat numbering, V domains shown) VH: QVQLVESGGGLVQPGRSLRLSCAASGFTFQNAWMHWVRQAPGKGLEWVAQIKDKGNAYAAYYAPSVKGRFTISRDDSKNSIYLQMNSLKTEDTAVYYCHYVHYASASTVLPAFGVDAWGQGTTVTVSS VL: DIVMTQSPLSLPVTPGEPASISCQASQELVHMNRNTYLHWYQQKPGQAPRLLIYKVSNRFPGVPDRFSGSGSGTDFTLKISRVEAEDVGVYYCAQGTSVPFTFGQGTKLEIK |
| 0.8 | H183/L072 VH S30R (antibody, name in Kabat numbering, V domains shown) VH: QVQLVESGGGLVQPGRSLRLSCAASGFTFRNAWMHWVRQAPGKGLEWVAQIKDKGNAYAAYYAPSVKGRFTISRDDSKNSIYLQMNSLKTEDTAVYYCHYVHYASASTVLPAFGVDAWGQGTTVTVSS VL: DIVMTQSPLSLPVTPGEPASISCQASQELVHMNRNTYLHWYQQKPGQAPRLLIYKVSNRFPGVPDRFSGSGSGTDFTLKISRVEAEDVGVYYCAQGTSVPFTFGQGTKLEIK |
| 1.1 | H183/L072 VH S30T (antibody, name in Kabat numbering, V domains shown) VH: QVQLVESGGGLVQPGRSLRLSCAASGFTFTNAWMHWVRQAPGKGLEWVAQIKDKGNAYAAYYAPSVKGRFTISRDDSKNSIYLQMNSLKTEDTAVYYCHYVHYASASTVLPAFGVDAWGQGTTVTVSS VL: DIVMTQSPLSLPVTPGEPASISCQASQELVHMNRNTYLHWYQQKPGQAPRLLIYKVSNRFPGVPDRFSGSGSGTDFTLKISRVEAEDVGVYYCAQGTSVPFTFGQGTKLEIK |
| 0.8 | H183/L072 VH S30V (antibody, name in Kabat numbering, V domains shown) VH: QVQLVESGGGLVQPGRSLRLSCAASGFTFVNAWMHWVRQAPGKGLEWVAQIKDKGNAYAAYYAPSVKGRFTISRDDSKNSIYLQMNSLKTEDTAVYYCHYVHYASASTVLPAFGVDAWGQGTTVTVSS VL: DIVMTQSPLSLPVTPGEPASISCQASQELVHMNRNTYLHWYQQKPGQAPRLLIYKVSNRFPGVPDRFSGSGSGTDFTLKISRVEAEDVGVYYCAQGTSVPFTFGQGTKLEIK |
| 1.3 | H183/L072 VH S30W (antibody, name in Kabat numbering, V domains shown) VH: QVQLVESGGGLVQPGRSLRLSCAASGFTFWNAWMHWVRQAPGKGLEWVAQIKDKGNAYAAYYAPSVKGRFTISRDDSKNSIYLQMNSLKTEDTAVYYCHYVHYASASTVLPAFGVDAWGQGTTVTVSS VL: DIVMTQSPLSLPVTPGEPASISCQASQELVHMNRNTYLHWYQQKPGQAPRLLIYKVSNRFPGVPDRFSGSGSGTDFTLKISRVEAEDVGVYYCAQGTSVPFTFGQGTKLEIK |
| 1.2 | H183/L072 VH S30Y (antibody, name in Kabat numbering, V domains shown) VH: QVQLVESGGGLVQPGRSLRLSCAASGFTFYNAWMHWVRQAPGKGLEWVAQIKDKGNAYAAYYAPSVKGRFTISRDDSKNSIYLQMNSLKTEDTAVYYCHYVHYASASTVLPAFGVDAWGQGTTVTVSS VL: DIVMTQSPLSLPVTPGEPASISCQASQELVHMNRNTYLHWYQQKPGQAPRLLIYKVSNRFPGVPDRFSGSGSGTDFTLKISRVEAEDVGVYYCAQGTSVPFTFGQGTKLEIK |
| 1.4 | H183/L072 VH S62A (antibody, name in Kabat numbering, V domains shown) VH: QVQLVESGGGLVQPGRSLRLSCAASGFTFSNAWMHWVRQAPGKGLEWVAQIKDKGNAYAAYYAPAVKGRFTISRDDSKNSIYLQMNSLKTEDTAVYYCHYVHYASASTVLPAFGVDAWGQGTTVTVSS VL: DIVMTQSPLSLPVTPGEPASISCQASQELVHMNRNTYLHWYQQKPGQAPRLLIYKVSNRFPGVPDRFSGSGSGTDFTLKISRVEAEDVGVYYCAQGTSVPFTFGQGTKLEIK |
| 1.4 | H183/L072 VH S62I (antibody, name in Kabat numbering, V domains shown) VH: QVQLVESGGGLVQPGRSLRLSCAASGFTFSNAWMHWVRQAPGKGLEWVAQIKDKGNAYAAYYAPIVKGRFTISRDDSKNSIYLQMNSLKTEDTAVYYCHYVHYASASTVLPAFGVDAWGQGTTVTVSS VL: DIVMTQSPLSLPVTPGEPASISCQASQELVHMNRNTYLHWYQQKPGQAPRLLIYKVSNRFPGVPDRFSGSGSGTDFTLKISRVEAEDVGVYYCAQGTSVPFTFGQGTKLEIK |
| 1.5 | H183/L072 VH S62L (antibody, name in Kabat numbering, V domains shown) VH: QVQLVESGGGLVQPGRSLRLSCAASGFTFSNAWMHWVRQAPGKGLEWVAQIKDKGNAYAAYYAPLVKGRFTISRDDSKNSIYLQMNSLKTEDTAVYYCHYVHYASASTVLPAFGVDAWGQGTTVTVSS VL: DIVMTQSPLSLPVTPGEPASISCQASQELVHMNRNTYLHWYQQKPGQAPRLLIYKVSNRFPGVPDRFSGSGSGTDFTLKISRVEAEDVGVYYCAQGTSVPFTFGQGTKLEIK |
| 1.3 | H183/L072 VH S62M (antibody, name in Kabat numbering, V domains shown) VH: QVQLVESGGGLVQPGRSLRLSCAASGFTFSNAWMHWVRQAPGKGLEWVAQIKDKGNAYAAYYAPMVKGRFTISRDDSKNSIYLQMNSLKTEDTAVYYCHYVHYASASTVLPAFGVDAWGQGTTVTVSS VL: DIVMTQSPLSLPVTPGEPASISCQASQELVHMNRNTYLHWYQQKPGQAPRLLIYKVSNRFPGVPDRFSGSGSGTDFTLKISRVEAEDVGVYYCAQGTSVPFTFGQGTKLEIK |

Reference: patent US20210388087A1 (Chugai, published 2021)
